“And” between values parts separate entries of the source, which are not always exact repeats. Equal entries are not always repeated. Where two headings read alike, the source gives them in different places.

We go through 13 molecules from article PMC9379584 (iScience, 2022).

Assay [1] relates to INS-1E cells. Nature of the assay: Glucose-stimulated insulin secretion. Type of assay: cell-based, rat. The note with it: read-out: IC50, inhibition of GSIS; INS-1E, 20 mM glucose, 90 min.
Assay [2] concerns mouse pancreatic islets. Nature of the assay: Glucose-stimulated insulin secretion. The class given is cell-based. The note with it: read-out: IC50, inhibition of GSIS; wildtype mouse islets, 20 mM glucose, 90 min.
Assay [3] has as its system INS-1E cells. Nature of the assay: HTRF cAMP assay in INS-1E cells. Type of assay: cell-based, rat. The note with it: normalized to DA's efficacy in parental INS-1E. For orientation: In TR-FRET formats the signal depends on donor and acceptor labels being close together.
The subject of assay [4] is α2A-AR KO INS-1E-derived cell line. Nature of the assay: HTRF cAMP assay in α2A-AR KO INS-1E-derived cells. Type of assay: cell-based, rat.
Assay [5] concerns INS-1E cells. The note with it: cited from earlier work.
Assay [6] deals with T1, α2A-AR (Rattus norvegicus, UniProt P22909).
T1 sequence (P22909 1-465): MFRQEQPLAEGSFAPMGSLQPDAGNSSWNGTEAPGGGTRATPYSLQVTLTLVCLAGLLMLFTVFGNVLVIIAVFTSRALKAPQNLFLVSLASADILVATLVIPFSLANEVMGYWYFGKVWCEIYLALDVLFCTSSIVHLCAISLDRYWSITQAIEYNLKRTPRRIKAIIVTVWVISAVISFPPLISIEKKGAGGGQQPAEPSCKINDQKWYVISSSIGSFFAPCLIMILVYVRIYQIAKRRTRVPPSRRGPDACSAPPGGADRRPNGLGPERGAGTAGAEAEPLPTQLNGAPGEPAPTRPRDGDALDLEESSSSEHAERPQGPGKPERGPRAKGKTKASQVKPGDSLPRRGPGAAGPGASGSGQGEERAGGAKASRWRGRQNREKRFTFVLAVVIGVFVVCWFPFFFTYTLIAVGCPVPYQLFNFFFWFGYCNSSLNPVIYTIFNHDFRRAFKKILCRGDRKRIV
Nature of the assay: cell-based. The note with it: nanoBRET. On the technique in general: Bioluminescence resonance energy transfer reports proximity on the nanometre scale.

In assay [7] the test system is mouse pancreatic islets. The note with it: cited from earlier work.
The target in assay [8] is T1, α2A-AR. The class given is cell-based. The note with it: nanoBRET.
Assay [9] addresses IL6-HiBiT-α2A-AR-HaloTag (rat α2A-adrenergic receptor) (rat) (UniProt P22909). Nature of the assay: FRET or BRET.
Assay [10] deals with IL6-HiBiT-D2R-HaloTag (human dopamine D2 receptor) (human) (UniProt P14416). Nature of the assay: FRET or BRET.
Sequence of IL6-HiBiT-D2R-HaloTag (human dopamine D2 receptor) (human) (P14416 whole entry): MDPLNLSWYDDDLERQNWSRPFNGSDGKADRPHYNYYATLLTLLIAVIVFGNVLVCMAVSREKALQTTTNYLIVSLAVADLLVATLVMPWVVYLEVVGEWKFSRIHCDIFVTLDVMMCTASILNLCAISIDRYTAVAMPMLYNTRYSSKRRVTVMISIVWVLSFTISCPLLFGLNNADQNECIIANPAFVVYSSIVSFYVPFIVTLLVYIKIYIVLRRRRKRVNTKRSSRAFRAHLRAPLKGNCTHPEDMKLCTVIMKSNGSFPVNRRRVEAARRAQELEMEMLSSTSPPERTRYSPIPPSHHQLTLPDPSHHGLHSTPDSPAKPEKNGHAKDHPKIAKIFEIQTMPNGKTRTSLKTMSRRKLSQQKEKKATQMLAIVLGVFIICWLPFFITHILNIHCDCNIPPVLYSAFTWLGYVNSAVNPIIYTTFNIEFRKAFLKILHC
The target in assay [11] is IL6-HiBiT-D2R-HaloTag (human dopamine D2 receptor) (human, UniProt P14416 1-443, HaloTag NanoBRET 618 ligand bound to the HaloTag). Nature of the assay: FRET or BRET.
Sequence of IL6-HiBiT-D2R-HaloTag (human dopamine D2 receptor) (P14416 whole entry): as above
Setting [12] is: α2A-AR KO versus parental INS-1E.
[13] abbreviates: read-out: IC50, inhibition of GSIS, ref Aslanoglou et al. (2021).
The mark [14] stands for this setting: read-out: IC50, inhibition of GSIS, ref Aslanoglou et al., 2021.

As for `Clc1cccc(Cl)c1N=C1NCCN1` [Clonidine, clonidine], the values for the IC50 in the assay on INS-1E cells [1] and with mouse pancreatic islets [2] were 9.06 nM and 7.36 nM, respectively.
As for `NCCc1ccc(O)c(O)c1` [DA, dopamine], the “Emax, inhibition of cAMP production” value in the assay with INS-1E cells [3] is 100.00 % DA; in assay [4] (α2A-AR KO, normalized to DA's efficacy in parental INS-1E), 57.15 [46.22–88.79] % DA. The IC50 – broadly, the midpoint of a concentration-inhibition curve – was 1500 nM in [4] (read-out: IC50, inhibition of cAMP production, α2A-AR KO); 1490 nM with INS-1E cells [5] (setting [13]); 1500 nM with INS-1E cells [5] (setting [14]); 1300 nM in the assay on mouse pancreatic islets [7] (setting [13]); 1300 nM with mouse pancreatic islets [7] (setting [14]). Moreover, the “increase of potency in diminishing cAMP by α2A-AR KO” value in assay [4] (setting [12]) turned out to be 1.7 fold. The “reduction of efficacy in lowering cAMP by α2A-AR KO” value in assay [4] (setting [12]) was 57% and 57.2%. The “pIC50, inhibition of GSIS” value with INS-1E cells [5] (ref Aslanoglou et al. (2021)) is reported as 5.83; with mouse pancreatic islets [7] (ref Aslanoglou et al. (2021)), 5.89. The concentration giving a half-maximal response (EC50) – broadly, the midpoint of the concentration-response curve – on α2A-AR [6] (EC50, Gαi2 recruitment to α2A-AR, Gαi2) is 1040 nM; at α2A-AR [6] (EC50, Gαi3 recruitment to α2A-AR, Gαi3), 1030 nM; at α2A-AR [6] (EC50, GαoA recruitment to α2A-AR, GαoA), 836 nM; on α2A-AR [6] (EC50, GαoB recruitment to α2A-AR, GαoB), 945 nM; at α2A-AR [6] (EC50, Gαz recruitment to α2A-AR, Gαz) it was 666 nM; at α2A-AR [6] (pEC50, GαoB recruitment to α2A-AR, GαoB), 933 nM. Also, the “β-arrestin1 recruitment to α2A-AR” value at α2A-AR [8] is “negligible recruitment”.
For the molecule “NanoLuc-Gαi1(91) (from UniProt P63096 1-354) (natural protein)”, the Emax of recruitment with bromocriptine (% of the NE response) (% of NE response) in assay [9] came out at 15.4.
As to “NanoLuc-Gαi1(91) (from UniProt P63096 1-354) (natural protein; other documents disagree on this pair)”, in assay [10], the EC50 of the agonist NE for recruitment is 4900 nM, the EC50 of the agonist bromocriptine for recruitment came out at 104 nM and the Emax of recruitment with bromocriptine (% of the DA response) (% of DA response) worked out at 60.
For “NanoLuc-Gαi2(91) (from UniProt P04899 1-355) (natural protein)”, in assay [9], the Emax of recruitment with bromocriptine (% of the NE response) (% of NE response) stood at 43.8.
Consider “NanoLuc-Gαi2(91) (from UniProt P04899 1-355) (natural protein; other documents disagree on this pair)”, for which, in assay [10], the EC50 of the agonist DA for recruitment came out at 2.88 nM, the EC50 of the agonist NE for recruitment is 25.3 nM, the EC50 of the agonist bromocriptine for recruitment stood at 21.6 nM and the Emax of recruitment with bromocriptine (% of the DA response) (% of DA response) was determined as 89.3.
As to “NanoLuc-Gαi3(91) (from UniProt P08754 1-354) (natural protein)”, in [9], the Emax of recruitment with bromocriptine (% of the NE response) (% of NE response) was 12.7.
For the molecule “NanoLuc-Gαi3(91) (from UniProt P08754 1-354) (natural protein; other documents disagree on this pair)”, in [10], the EC50 of the agonist NE for recruitment is 32600 nM, the EC50 of the agonist bromocriptine for recruitment was determined as 84.3 nM and the Emax of recruitment with bromocriptine (% of the DA response) (% of DA response) is 64.2.
Turning to “NanoLuc-GαoA(91) (from UniProt P09471 1-354) (natural protein)”, the Emax of recruitment with bromocriptine (% of the NE response) (% of NE response) in [9] was found to be 43.
“NanoLuc-GαoA(91) (from UniProt P09471 1-354) (natural protein; other documents disagree on this pair)” had an Emax of recruitment with bromocriptine (% of the DA response) (% of DA response) in [10] of 109.
For the molecule “NanoLuc-Gαz(91) (from UniProt P19086 1-355) (natural protein)”, the Emax of recruitment with bromocriptine (% of the NE response) (% of NE response) in assay [9] came to 21.2.
As to “NanoLuc-Gαz(91) (from UniProt P19086 1-355) (natural protein; other documents disagree on this pair)”, in assay [10], the EC50 of the agonist NE for recruitment is 0.07 nM, the EC50 of the agonist bromocriptine for recruitment stood at 4.3 nM and the Emax of recruitment with bromocriptine (% of the DA response) (% of DA response) turned out to be 66.5.

B1: NanoLuc-GαoB(91) (natural protein)
chain: MGCTLSAEERAALERSKAIEKNLKEDGISAAKDVKLLLLGAGESGKSTIVKQMKIIHEDGFSGEDVKQYKPVVYSNTIQSLAAIVRAMDTLGIEYGDKERKADAKMVCDVVSRMEDTEPFSAELLSAMMRLWGDSGIQECFNRSREYQLNDSAKYYLDSLDRIGAADYQPTEQDILRTRVKTTGIVETHFTFKNLHFRLFDVGGQRSERKKWIHCFEDVTAIIFCVALSGYDQVLHEDETTNRMHESLKLFDSICNNKWFTDTSIILFLNKKDIFEEKIKKSPLTICFPEYTGPSAFTEAVAYIQAQYESKNKSAHKEIYTHVTCATDTNNIQFVFDAVTDVIIAKNLRGCGLY
As for B1, in assay [11], the “EC50 of the agonist DA for recruitment” value was 22.4 nM, the “EC50 of the agonist NE for recruitment” value turned out to be 139 nM and the “EC50 of the agonist bromocriptine for recruitment” value is 0.27 nM.
